We go through six molecules from paper PMC3618327, “Genetic and Biochemical Characterization of the MinC-FtsZ Interaction in Bacillus subtilis” (PLoS ONE, 2013).

B2: His6-FtsZ, wild-type Bacillus subtilis FtsZ (natural protein, B. subtilis, UniProt P17865 1-382, looked up)
chain: MLEFETNIDGLASIKVIGVGGGGNNAVNRMIENEVQGVEYIAVNTDAQALNLSKAEVKMQIGAKLTRGLGAGANPEVGKKAAEESKEQIEEALKGADMVFVTAGMGGGTGTGAAPVIAQIAKDLGALTVGVVTRPFTFEGRKRQLQAAGGISAMKEAVDTLIVIPNDRILEIVDKNTPMLEAFREADNVLRQGVQGISDLIATPGLINLDFADVKTIMSNKGSALMGIGIATGENRAAEAAKKAISSPLLEAAIDGAQGVLMNITGGTNLSLYEVQEAADIVASASDQDVNMIFGSVINENLKDEIVVTVIATGFIEQEKDVTKPQRPSLNQSIKTHNQSVPKREPKREEPQQQNTVSRHTSQPADDTLDIPTFLRNRNKRG
notes: FtsZ of Bacillus subtilis, the ftsZ gene cloned into pET28a; also called WT; FtsZ^WT; source: E. coli BL21(DE3)-RIL, purified (two-step ammonium sulfate and GTP+Ca2+ precipitation); not shown: His6, N-terminal, kept

Data set [1] deals with T1, MinC-His6, wild-type Bacillus subtilis MinC (B. subtilis, UniProt Q01463 1-226).
T1 sequence (looked up): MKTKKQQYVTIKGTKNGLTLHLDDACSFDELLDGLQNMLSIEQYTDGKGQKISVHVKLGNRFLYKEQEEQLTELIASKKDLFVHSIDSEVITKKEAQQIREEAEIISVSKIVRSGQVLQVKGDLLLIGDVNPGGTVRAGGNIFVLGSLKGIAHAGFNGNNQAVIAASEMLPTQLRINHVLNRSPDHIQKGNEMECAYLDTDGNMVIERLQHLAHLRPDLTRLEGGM
In words: cell-based or functional assay.

Data set [2] deals with the molecule itself. In words: sedimentation of polymers; 7 µM FtsZ in Mes/NaOH 50 mM, MgCl2 10 mM, KCl 133 mM, DEAE-dextran 0.6 mg/mL, pH 6.5, GTP 2 mM, room temperature, 100.000 rpm 15 min; pellet and supernatant on SDS-PAGE.
Data set [3] deals with B2. Nature of the data set: other fluorescence titration; intrinsic Trp fluorescence of 1 µM MinC Y44W with 0.5-3 µM FtsZ in solution; Tris/HCl 20 mM, KCl 100 mM, EDTA 5 mM, pH 7.5; excitation 295 nm, emission 320-360 nm; the interaction was inhibited by salt (1 M KCl). Conditions: both partners purified.

By Kd is commonly meant the constant that tells how readily two partners part at equilibrium.

B1: His6-FtsZ R376T (natural protein, B. subtilis, UniProt P17865 1-382, looked up)
chain: MLEFETNIDGLASIKVIGVGGGGNNAVNRMIENEVQGVEYIAVNTDAQALNLSKAEVKMQIGAKLTRGLGAGANPEVGKKAAEESKEQIEEALKGADMVFVTAGMGGGTGTGAAPVIAQIAKDLGALTVGVVTRPFTFEGRKRQLQAAGGISAMKEAVDTLIVIPNDRILEIVDKNTPMLEAFREADNVLRQGVQGISDLIATPGLINLDFADVKTIMSNKGSALMGIGIATGENRAAEAAKKAISSPLLEAAIDGAQGVLMNITGGTNLSLYEVQEAADIVASASDQDVNMIFGSVINENLKDEIVVTVIATGFIEQEKDVTKPQRPSLNQSIKTHNQSVPKREPKREEPQQQNTVSRHTSQPADDTLDIPTFLTNRNKRG
notes: FtsZ of Bacillus subtilis, mutant in the C-terminal peptide (CTP); source: E. coli BL21(DE3)-RIL, purified (two-step ammonium sulfate and GTP+Ca2+ precipitation); not shown: His6, N-terminal, kept
Take B1: in data set [1], the “light scattering signal of FtsZ polymerization with MinC (7 µM FtsZ, 20 µM MinC) relative to the signal in the absence of MinC” value came to 70%. Further, in data set [2], the binding result is “binds”. Turning to B2, in data set [2], the binding result was “binds”.

B3: His6-FtsZ T111A (natural protein, B. subtilis, UniProt P17865 1-382, looked up)
chain: MLEFETNIDGLASIKVIGVGGGGNNAVNRMIENEVQGVEYIAVNTDAQALNLSKAEVKMQIGAKLTRGLGAGANPEVGKKAAEESKEQIEEALKGADMVFVTAGMGGGTGAGAAPVIAQIAKDLGALTVGVVTRPFTFEGRKRQLQAAGGISAMKEAVDTLIVIPNDRILEIVDKNTPMLEAFREADNVLRQGVQGISDLIATPGLINLDFADVKTIMSNKGSALMGIGIATGENRAAEAAKKAISSPLLEAAIDGAQGVLMNITGGTNLSLYEVQEAADIVASASDQDVNMIFGSVINENLKDEIVVTVIATGFIEQEKDVTKPQRPSLNQSIKTHNQSVPKREPKREEPQQQNTVSRHTSQPADDTLDIPTFLRNRNKRG
notes: FtsZ of Bacillus subtilis, promiscuous mutant in the N-terminal subdomain; source: E. coli BL21(DE3)-RIL, purified (two-step ammonium sulfate and GTP+Ca2+ precipitation); not shown: His6, N-terminal, kept
Turning to B3, the binding result in data set [2] is given as “binds”.

B4: His6-FtsZ K243R (natural protein, B. subtilis, UniProt P17865 1-382, looked up)
chain: MLEFETNIDGLASIKVIGVGGGGNNAVNRMIENEVQGVEYIAVNTDAQALNLSKAEVKMQIGAKLTRGLGAGANPEVGKKAAEESKEQIEEALKGADMVFVTAGMGGGTGTGAAPVIAQIAKDLGALTVGVVTRPFTFEGRKRQLQAAGGISAMKEAVDTLIVIPNDRILEIVDKNTPMLEAFREADNVLRQGVQGISDLIATPGLINLDFADVKTIMSNKGSALMGIGIATGENRAAEAAKRAISSPLLEAAIDGAQGVLMNITGGTNLSLYEVQEAADIVASASDQDVNMIFGSVINENLKDEIVVTVIATGFIEQEKDVTKPQRPSLNQSIKTHNQSVPKREPKREEPQQQNTVSRHTSQPADDTLDIPTFLRNRNKRG
notes: FtsZ of Bacillus subtilis, mutant from the error-prone PCR library; source: E. coli BL21(DE3)-RIL, purified (two-step ammonium sulfate and GTP+Ca2+ precipitation); not shown: His6, N-terminal, kept
As for B4, in data set [2], the binding result is listed as “binds”.

B5: His6-FtsZ D287V (natural protein, B. subtilis, UniProt P17865 1-382, looked up)
chain: MLEFETNIDGLASIKVIGVGGGGNNAVNRMIENEVQGVEYIAVNTDAQALNLSKAEVKMQIGAKLTRGLGAGANPEVGKKAAEESKEQIEEALKGADMVFVTAGMGGGTGTGAAPVIAQIAKDLGALTVGVVTRPFTFEGRKRQLQAAGGISAMKEAVDTLIVIPNDRILEIVDKNTPMLEAFREADNVLRQGVQGISDLIATPGLINLDFADVKTIMSNKGSALMGIGIATGENRAAEAAKKAISSPLLEAAIDGAQGVLMNITGGTNLSLYEVQEAADIVASASVQDVNMIFGSVINENLKDEIVVTVIATGFIEQEKDVTKPQRPSLNQSIKTHNQSVPKREPKREEPQQQNTVSRHTSQPADDTLDIPTFLRNRNKRG
notes: as for B4
For the molecule B5, the binding result in data set [2] is given as “binds”.

B6: MinC Y44W (tryptophan mutant of Bacillus subtilis MinC) (natural protein, B. subtilis, UniProt Q01463 1-226, looked up)
chain: MKTKKQQYVTIKGTKNGLTLHLDDACSFDELLDGLQNMLSIEQWTDGKGQKISVHVKLGNRFLYKEQEEQLTELIASKKDLFVHSIDSEVITKKEAQQIREEAEIISVSKIVRSGQVLQVKGDLLLIGDVNPGGTVRAGGNIFVLGSLKGIAHAGFNGNNQAVIAASEMLPTQLRINHVLNRSPDHIQKGNEMECAYLDTDGNMVIERLQHLAHLRPDLTRLEGGM
notes: MinC of Bacillus subtilis with tryptophan at position 44 of the N-terminal domain; The methods name both His6-MinC (pET28a) and MinC-His6 (pET24b); also called tryptophan mutant MinC Y44W
Consider B6, for which, in data set [3], the Kd is around 1000 nM.
